# Assay results reported in the nanobody polyreactivity screen of Harvey et al. (2022).
# Experiment: yeast display, Sf9 membrane polyspecificity reagent, FACS + sequencing; frameworks hold sequencing errors
# In short: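 Using colony PCR, genes from sorted yeast display clones were amplified, then sequenced on MiSeq at 2 × 250 and filtered by CDR length. The clones had been stained with 10% biotinylated, detergent-solubilized Sf9 membrane reagent for 1 hour at 4 °C and sorted by FACS into low and high (top ~1%) gates on anti-HA and streptavidin fluorescence. Polyreactivity labels come from the gate of origin.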
row,Sequence,polyreactivity (PSR sort gate)
1,QVQLVESGAGLVQAGGSLRLSCAASGLILGVYTMGWYRQAPGTEREFVASINYGGGSTYYADSVKGRFTISRDNAKNTVYLQMNSLKPEDTAVYYCNARSRWGGTRLYSYDYWGQGTKVTVSS,low polyreactivity
2,QVQLVESGAGLVQAGGSLRLSCAASGLTFEWYAMGWYRPAPGKERELVAAISWNGGSTYYADSVKGRFTISRDNAKNTVYLQMNSLKPEDTAVYYCATSSPRRYYWGQGTQVTVSS,high polyreactivity
3,QVQLVESGAGLVQAGGSLRLSCAASGLTFVFYAMGWYRQAPGKERELVAAISSSGGSTNYADSVKGRFTISRDNAKNTVYLQMNSLKPEDTAVYYCAAETVSWYRYYYRGQGTQVTVSS,high polyreactivity
4,QVQLVESGAGLVQAGGSLRLSCAASGLTIYVNAMGWYGQAPGKERELVATISGSGSTNYADSEKGRFTISRDDAKNTVYLQMNSLKPEDTAVYYCNAGWAQDPSNYWGQGTQVNVSS,low polyreactivity
5,QVQLVESGAGLVQAGGSLRLSCAASGRIFGYYAMGWYRQAPGQERELVATIRGGGSTNYADSVKGRFTISRDNAKNTVYLQMNSLKPEDTAVYVCAKPGAKWRGFDYWGQGTQVTLSS,low polyreactivity
6,QVQLVESGAGLVQAGGSLRLSCAASGRIFPDNTMGWYRQAHGKERELVAVITYSGGSTYYADSVKGRFTISRDNAKNTVYLQMNSLKPEDTAVYYCAADFGFQLKMYYWGQGTQVTVSS,low polyreactivity
7,QVQLVESGAGLVQAGGSLRLSCAASGRIFTFNTMGWYRQAPGKERELVAAITSSSARTYYADSVKGRFTISRYNAKNTVYLQMNSLKPEDTAVYYCATRDWVGSVRMGYWGQGTQVTVSS,high polyreactivity
8,QVQLVESGAGLVQAGGSLRLSCAASGRILHEYAMGWYRQAPGKERELVAAITFSGTSTYYADSVKGRFTISRDNAKNSVYLQMNSLKPEDTAVYYCAADTYGGSRDYWGQGTQVTVSS,low polyreactivity
9,QVQLVESGAGLVQAGGSLRLSCAASGRTFIGNAMGWYRQAPGKERELVAAISSSGGNTYYADSVKGRFTISRDNAKNTVYLQMNSLKPEDTAVYYCAVEVRTFVTYGRREYYWGQGTQVTVSS,high polyreactivity
10,QVQLVESGAGLVQAGGSLRLSCAASGRTFINNVMGWYRQAPGKERELVAAINSGSSTKYADSVKRRFTISRDNAKNTVYLQMNSLKPEDTAVYYCAAELWYFSEIGRMDYWGQGTIVTVSS,high polyreactivity
11,QVQLVESGAGLVQAGGSLRLSCAASGRTFPYYVMGWYRQAPGKERELVAAIRRTGGSTYYADSVKGRFTISRDNAKNTVYLQMNSLKPEDTAVYYCTQRHSILYEGGYDYWGQGTQVTVSS,low polyreactivity
12,QVQLVESGAGLVQAGGSLRLSCAASGRTFSGYAMGWYRQAPGKERELVASITWSGGSTYYADSVKGRFTISRDNAKNTVYLQMNSLKPDDTAVYYCARDSPRGRVGFNYWGQGTQVTVSS,low polyreactivity
13,QVQLVESGAGLVQAGGSLRLSCAASGRTFYWYVMGWYRQAPGKERELVAAITQTGSSTYYADSVKGRFTISRDYAKNTVYLQMNSLKPEDTAVYYWAAEASSVPGYDYWGQGTQVTVSS,low polyreactivity
14,QVQLVESGAGLVQAGGSLRLSCAASGSAFYVYARGWYTQAPGKERELVAAIRGGGSTNYADSVKGRFTISRDNAKNTFYLQMNSLKPEDTAVYDCAARYRSPRYRPSGYSYNYWGQGTQVTVSS,high polyreactivity
15,QVQLVESGAGLVQAGGSLRLSCAASGSIFDHYAMGWYRQAPGKERELVAAISSSGGSTYYADSVKGRFTISRDNAKNTVYLQMNSLKPEDTAVYSCAARAGYTRYGYWGQGTQVTVSS,high polyreactivity
16,QVQLVESGAGLVQAGGSLRLSCAASGSIFPRYAMGWYRQAPWTERELVAAITNGGSTDYADSVKGRFTISRDNAKNTVYLQMNSLKPEDTAVYYCAADLAVGIYPEDGEYWGQGTQVTVSS,low polyreactivity
17,QVQLVESGAGLVQAGGSLRLSCAASGSIFTENSMGWYRQAPGKEREMVAAIRWDDGHTYYADSVKGRFTISRDNAKNTVYLQMNSLKPEDTAVYYCNADKWSSTDDWLYDYWGQGTQVTVSS,low polyreactivity
18,QVQLVESGAGLVQAGGSLRLSCAASGSTFYRYVMGWYRQAPGKERELVAAISGSGVRTYYADSVKGRFTISRDNAKNTVYLQMHSLKPEATAVYYCAASVRSRSQTYLRYDYWGQGTQVTVSS,high polyreactivity
19,QVQLVESGAGLVQAGGSLRLSCAATGSIVDWYVMGWYRQAPGKERELVAAITSTGSTYYADSVKGRFTISRDNAKNPVYLQMNSLKPEDTAVYYCATSFYVYPTYYIMDYWGQGTQVTVSS,low polyreactivity
20,QVQLVESGAGLVQAGGSLRLSCAPSGFIFFVNAMGWYRQAPGKERELVADITKIDGTTYYADSVKGRFTISRDNAKNTVYLQMNSLKPEDTAVYYCAAGYRQLSSVRDYDYWGQGTQVTVSS,low polyreactivity
21,QVQLVESGAGLVQAGGSLRLSCAPSGSIFAAYAMGWYRQAPGKESELVAAIDRGGSTDYADSVKGRFTISRDNAKNTVYLQMNTLKPEDTAVYYCAKGYDYYVRRYYYWGQGTQVTVSS,high polyreactivity
22,QVQLVESGAGLVQAGGSLRLTCAASARILGAYAMGWYRQAPGKERELVASISSGGRTYYADSVKGRFTISRDNAKNTVYLQMNSLKPEDTAVYYCNRDRNSGFYRRYGYWGQGSQVTVSS,high polyreactivity

row,Sequence,polyreactivity (PSR sort gate)
1,QVQLVESGAGLVQAGGSLRRSCAASGGNFYYNVMGWYRQAPGKERELLAAIDTSGGNRYADSVKGRFTISRDNAKNTVYLQMNSLNPEDTAVYYSAVGAYWYFGIVSYGYDYWGQGTQVTVSS,low polyreactivity
2,QVQLVESGAGLVQAGGSRRLSCAASGFTFKSYAMGLYRQAAGKERELVAAINRSGGSTYYADSVKGRFTISRDYAMNTVYLQMNSLSPDDTAVYYCAAVKPPDYYYWGQGTQVTVSS,high polyreactivity
3,QVQLVESGAGLVQAGRSLRLSCASSGITIKRYAMGWYSQAPGKESELVAAINFGAGNTYYADSVKGRFTISRDNAKNPVYLQMNSLKPEDSAVYYCATTARHRYGEYYYWGLGTQVTVSS,high polyreactivity
4,QVQLVESGAGLVQARGSLRLTCAASGGTFLSYAKGWYRQAPGKERELVAGISSGGSTNYADSVKGRFTISRDNAKNTVYLQMNSLKPEDTAVYYCAADSFPSEFDYWGQGTQVTVSS,low polyreactivity
5,QVQLVESGEGIVQAGGSLRLSCAASGSIFGIYVMGWYRQAPGKERELVAAITFGGGSTYYADSVKGRFTISRYNAKNSVYLKMNRLKPEDTSVYYCAAKSYDEGLYRRPRDYWGQGTQVTESS,high polyreactivity
6,QVQLVESGEGLVQAGGSLRLSCAASGRIFAWYAMGWYRQAPGKERELVAAIDRGDNTYYADSVKGRFTISRDNAKNTGYLQMNSLKPEDTAVYYGFYYGAHEPYGYWGQGTQVTVSS,low polyreactivity
7,QVQLVESGGAIVQAGGSLRLSCAASGRIYYPYAMGWYRQAPGKERELVAAISSGVSTNYADSVKGRFTITRDNAKNTVYLQMNSLNPEDTAVYYCARTYFRFSSSYYKAVSHGFWGQGTQVTVSS,high polyreactivity
8,QVQLVESGGALLQAGGSLRLSCAASGRTFPGYGMGWYRQAPGKERELVAVITSNGGITYYADSVKGRFTISRDNAKNTVYLQMNSLKPEDTAVYYCAAYEIYYEFDSWGQGTQVTVSS,low polyreactivity
9,QVQLVESGGALVHAGGSLRLTCAASGYTFRYYAMRWYRQAPGKERELVARINRSGGSTYYADSVKGRFTISRDNAKNTVYLQMNSLKPEDTAVYYCNRDYGWHYSYEYWGQGTQVTVSS,high polyreactivity
10,QVQLVESGGALVQAGCSLRLSCAASGITFAPYAKGWYRQAPGKEREMVAGINTGGSTYYADSVKGRFTISRDNAKYTVYLQMNSLKPEDTADYYCATESYPADQDIPGSDYWGQGTQVTVSS,low polyreactivity
11,QVQLVESGGALVQAGGSHRLSCAASGIIFDYNAAMGWYRQAPGKERELVAAISISGGSTYYADSVKGRFTISRDNAKNTVYLQMNSPKPEDTAVSYCAAVNYEWNYGYDYWGPGTQVTVSS,low polyreactivity
12,QVQLVESGGALVQAGGSLRLRCAASGRIFRLYAMGWYRQAPGKERELVAAISSSGADTYYADSVKGRFTISSDNAKNTVDLQMNSLKPEETAVYYCAARTWHRYDYFGQGTQVTVSS,high polyreactivity
13,QVQLVESGGALVQAGGSLRLSCAASARTFIQNGMGWNRQEPGKERELVAAISYRGGTTSYADSVQGRFTISRDNAKNTVYLQMNSLKPEVTAVYYCAKRYTYYSYDYWGQGTQVTVSS,high polyreactivity
14,QVQLVESGGALVQAGGSLRLSCAASGFTLSAYAKGWYRQAPGKERELVAGISYTGGRTYYADSVKGRFTISRDNAKNTVYLQMNSLKPEDTAVYYCNKAWSGYYKYGYWGQGTQVTVSS,low polyreactivity
15,QVQLVESGGALVQAGGSLRLSCAASGGTFFSNAMGWYRQAPGKERELVAAISNDDGDTYYADSVKGRFTISRDNAKNTVYLQMNSLKPEDTAVYYCAVDYSYLHRTTFEYWGQGTQVTVSS,low polyreactivity
16,QVQLVESGGALVQAGGSLRLSCAASGRIFGVNAIGWYRQAPGKERELVADISSGGSTNYADSVKGRFTISRDNAKNTVYLQMNSLKPEDTAVYYCAARTLRAGYRASGVRRDYWGQGTQVTVSS,high polyreactivity
17,QVQLVESGGALVQAGGSLRLSCAASGRIFVVNAMGWYRQAPGKERELGAAISIRGTRTYYADSVKGRFTISRDNAKNTVYLQMNSLKPEDTAVYYCAADASYTEGMDYWGQGTQVTVSS,high polyreactivity
18,QVQLVESGGALVQAGGSLRLSCAASGRIIYKNAMRWYRQAPGKETELVATITYSDGTTYYADSVKGRFTISRDNAKNTVYLQMNSLKPEDTAVYYCAAQTDSVESDYWGQGTQVTVSS,low polyreactivity
19,QVQLVESGGALVQAGGSLRLSCAASGRTFNRYGMGRYRQAPGEERELVASITSGGSTNYADSVKGRFTISRDNAKNTVFLQMNSLKPEDTAVYYCAKRSIGRYPRTYDYWGQGTKVTVSS,low polyreactivity
20,QVQLVESGGALVQAGGSLRLSCAASGRTFTFNTMGWYRQAPGKERELVAAIDGDGTTNYADSVKGRFTISRDNAKNTVYLLMNSLKPEDTAVYYCAADFLYSFWYEPTFDYCGQGTQVTVSS,low polyreactivity
21,QVQLVESGGALVQAGGSLRLSCAASGSISTYAIGWYRQAPGKERELVAAMNKRGGSTYYADSVKGRFTISRDNAKNTVDLQMNSLKPADTAVDYCAAGLAHSAAFDYWGQGTQVTVSS,low polyreactivity
